Data as given in patent US20250042995A1 (AKESO BIOPHARMA, published 2025).
Numbering of substitutions follows the chain as printed. Blank lines part the entries; values can stand above or below the binder they belong to.

Legend:
[1] = target: T1, human LAG3-mFc (human, UniProt P18627 23-450); assay: ELISA, human LAG3-mFc coated 2 ug/mL
T1 construct: also called antigen human LAG3-mFc; not shown: mFc: Fc protein fragment of mouse IgG
T1 sequence (looked up): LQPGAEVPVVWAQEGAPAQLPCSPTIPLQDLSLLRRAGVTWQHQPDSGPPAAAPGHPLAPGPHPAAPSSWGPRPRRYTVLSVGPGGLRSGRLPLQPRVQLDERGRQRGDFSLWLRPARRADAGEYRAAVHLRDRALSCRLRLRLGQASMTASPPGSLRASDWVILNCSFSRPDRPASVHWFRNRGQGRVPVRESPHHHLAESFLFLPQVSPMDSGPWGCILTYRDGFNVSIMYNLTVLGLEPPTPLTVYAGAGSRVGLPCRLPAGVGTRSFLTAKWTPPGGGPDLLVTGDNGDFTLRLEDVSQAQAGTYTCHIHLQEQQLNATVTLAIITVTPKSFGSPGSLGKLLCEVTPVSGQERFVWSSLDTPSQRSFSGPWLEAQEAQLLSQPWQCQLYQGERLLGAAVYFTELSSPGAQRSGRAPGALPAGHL
Protocol: Then the ELISA plate coated with the antigen was washed once with PBST and then blocked with a PBS solution containing 1% BSA as a blocking solution at 37° C. for 2 h. After blocking, the ELISA plate was washed 3 times with PBST. The ELISA plate containing the test antibodies was incubated at 37° C. for 30 min and then washed 3 times with PBST. After washing, a working solution of an HRP-labeled goat anti-human IgG (H+L) (Jackson, Cat. No. 109-035-088) secondary antibody diluted at a ratio of 1:5000 was added, and then the plate was incubated at 37° C. for 30 min. After incubation, the plate was washed 4 times with PBST, TMB (Neogen, 308177) was added for chromogenesis in the dark for 5 min, and then a stop solution was added to terminate the chromogenic reaction. The ELISA plate was put into an ELISA plate reader immediately, and the OD value of each well in the ELISA plate was read at 450 nm. The data were analyzed and processed by SoftMax Pro 6.2.1.

[2] = target: T1, human LAG3-mFc; assay: competitive flow cytometry: antibody titrated against 3 nM LAG3-mFc binding to MHC II on Raji cells
Protocol: Raji cells (medium: 1640+10% FBS) (Cell Resource Center, Shanghai Institutes for Biological Sciences, Chinese Academy of Sciences, Cat. No. TCHu 44) were added into EP tubes at 300,000 cells per sample. 1000 μL of 1% PBSA (PBS containing 1% BSA) was added. The mixture was centrifuged at 600×g for 5 min, and the supernatant was discarded. […] The mixture was mixed well and pre-incubated on ice for 30 min. 100 μL of the pre-incubated mixture of antibody and protein was added to the sample. The mixture was mixed well and incubated on ice in the dark for 1 h; 200 μL of 1% PBSA was added, and the mixture was centrifuged at 600×g for 5 min, followed by removal of the supernatant, and then washed twice; 100 μL of an APC anti mouse antibody (purchased from Biolegend, Cat. No. 405308) (diluted at a 1:400 ratio) was added, and the mixture was mixed well and incubated on ice in the dark for 40 min; 200 μL of 1% PBSA was added, and the mixture was centrifuged at 600×g for 5 min, followed by removal of the supernatant; 200 μL of Washing Buffer was added into each tube to resuspend the cells, and then the suspension was transferred to a sample loading tube for testing on a flow cytometer.

[3] = target: T2, human LAG3 (full length) expressed on cells (human, UniProt P18627 23-525); assay: flow cytometry on 293T-LAG3 cells
T2 construct: whole, on cells; also called huLAG3FL
T2 sequence (looked up): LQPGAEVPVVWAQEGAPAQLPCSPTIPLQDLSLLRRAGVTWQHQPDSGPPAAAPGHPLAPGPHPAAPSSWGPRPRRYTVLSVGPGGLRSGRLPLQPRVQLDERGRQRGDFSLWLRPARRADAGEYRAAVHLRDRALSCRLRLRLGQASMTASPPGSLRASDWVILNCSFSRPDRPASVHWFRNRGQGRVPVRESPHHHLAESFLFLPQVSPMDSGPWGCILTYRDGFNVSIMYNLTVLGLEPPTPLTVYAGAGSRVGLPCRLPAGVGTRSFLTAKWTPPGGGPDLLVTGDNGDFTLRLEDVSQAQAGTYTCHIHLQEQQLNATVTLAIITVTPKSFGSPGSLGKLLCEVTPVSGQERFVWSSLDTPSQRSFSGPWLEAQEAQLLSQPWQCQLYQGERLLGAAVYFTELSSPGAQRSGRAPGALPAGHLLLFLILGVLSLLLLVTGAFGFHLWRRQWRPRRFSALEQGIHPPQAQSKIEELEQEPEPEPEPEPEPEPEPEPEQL
Protocol: After centrifugation and washing several times with 1% PBSA, 100 μL of FITC goat anti-human IgG (purchased from Jackson, Cat. No. 109-095-098) (diluted at a 1:500 ratio) was added into each tube, and the mixture was incubated on ice in the dark for 40 min. After washing once with 1% PBSA, 200 μL of 1% PBSA was added to resuspend the cells. Fluorescence signals were detected with FITC channel on a flow cytometer.

- EC50 [1]: 0.142 nM
- EC50 [2]: 1.32 nM
- EC50 [3]: 4.81 nM
B1: H7L9(hG4WT) (antibody, human IgG4 S228P, kappa, V domains shown)
VH: QVQLQQWGAGLLKPSETLSLTCAVYGGSISDYYWNWIRQPPGKGLEWIGEINHRGTTNSNPSLKSRVTLSLDTSKNQFSLKLRSVTAADTAVYYCAFGYSDYEYDWFDPWGQGTLVTVSS
VL: EIVLTQSPATLSLSPGERATLSCRASQTISSYLAWYQQKPGQAPRLLIYDGSNRATGIPARFSGSGSGTDFTLTISSLEPEDFAVYYCQQRSNWPLTFGQGTNLEIKR
notes: Humanized anti-LAG3 IgG4 (Ig gamma-4 chain C region) with human kappa constant region

- EC50 [1]: 0.157 nM
- EC50 [2]: 1.27 nM
- EC50 [3]: 4.17 nM
B2: H7L10(hG4WT) (antibody, human IgG4 S228P, kappa, V domains shown)
VH: B1 VH
VL: B1 VL with T28S, L96I
notes: as for B1
